Assay results from patent US20250115669A1, “FGFR1/KLB Targeting Agonistic Antigen-Binding Proteins and Conjugates Thereof with GLP-1R Agonistic Peptides” (SANOFI, priority 2020, published 2025).

How the values were obtained:
human beta-Klotho = molecular target: T1, human beta-Klotho (Homo sapiens, UniProt Q86Z14); assay: SPR analysis of the active fraction of stressed antibodies; type: binding; settings: 21 days
T1 sequence (Q86Z14 1-1044): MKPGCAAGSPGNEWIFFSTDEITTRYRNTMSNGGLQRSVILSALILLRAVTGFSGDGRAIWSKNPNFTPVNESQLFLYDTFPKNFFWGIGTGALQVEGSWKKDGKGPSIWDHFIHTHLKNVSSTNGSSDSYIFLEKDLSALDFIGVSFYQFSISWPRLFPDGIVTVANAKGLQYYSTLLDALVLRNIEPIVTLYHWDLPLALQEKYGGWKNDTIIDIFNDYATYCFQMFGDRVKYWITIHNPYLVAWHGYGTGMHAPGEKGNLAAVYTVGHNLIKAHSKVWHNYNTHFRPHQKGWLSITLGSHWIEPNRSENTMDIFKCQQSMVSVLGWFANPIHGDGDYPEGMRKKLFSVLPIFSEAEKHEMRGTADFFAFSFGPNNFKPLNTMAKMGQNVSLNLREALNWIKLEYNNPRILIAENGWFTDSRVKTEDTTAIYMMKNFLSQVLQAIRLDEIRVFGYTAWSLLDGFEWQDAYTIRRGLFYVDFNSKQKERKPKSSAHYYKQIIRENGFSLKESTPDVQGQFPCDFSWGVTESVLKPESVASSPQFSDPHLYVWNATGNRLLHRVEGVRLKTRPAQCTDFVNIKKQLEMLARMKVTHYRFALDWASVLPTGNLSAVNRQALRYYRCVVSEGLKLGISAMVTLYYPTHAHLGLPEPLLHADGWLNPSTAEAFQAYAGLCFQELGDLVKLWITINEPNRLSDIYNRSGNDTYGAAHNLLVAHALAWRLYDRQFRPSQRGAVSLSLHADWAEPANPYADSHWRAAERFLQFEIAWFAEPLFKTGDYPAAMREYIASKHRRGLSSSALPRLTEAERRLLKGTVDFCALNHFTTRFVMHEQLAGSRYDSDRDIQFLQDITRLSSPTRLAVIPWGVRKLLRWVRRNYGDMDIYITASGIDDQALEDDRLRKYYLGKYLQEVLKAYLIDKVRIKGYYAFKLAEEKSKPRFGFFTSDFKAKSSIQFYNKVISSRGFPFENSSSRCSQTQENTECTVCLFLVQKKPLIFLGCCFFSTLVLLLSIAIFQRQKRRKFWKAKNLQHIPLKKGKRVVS
Experimental: Analysis of the active fraction of stressed antibodies was performed by SPR using the same Fc capture assay set up as described above for the affinity determination. In this case the association and dissociation times for human beta-Klotho were set to 240 sec and 300 sec, respectively. The active fraction of the samples was calculated as the ratio of binding signal for human beta-Klotho and the Fc capture signal of the antibody, normalized to the active fraction of the unstressed control samples. Mean values from three experiments were calculated.

[1] = Capillary gel electrophoresis (cGE); type: physicochemical
Experimental: Capillary Gel Electrophoresis (cGE) Purity and size heterogeneity of the samples was determined by capillary gel electrophoresis (cGE) using a CES18000 instrument (SCIEX) equipped with a pre-assembled fused silica capillary (50 μm×300 mm, SCIEX). Protein samples at 1 mg/ml were prepared using the IgG purity heterogeneity Kit (SCIEX) under non-reducing conditions according to the manufacturer's specifications. Samples were electrophoretically separated for 35 minutes at 25° C. and the absorbance at 220 nm was recorded by a photo diode array (PDA) detector. The data were analyzed using 32 Karat Software (SCIEX).

[2] = Size-exclusion chromatography (SEC); type: physicochemical
Experimental: Analytical SEC was performed using a BioSECcurity instrument (PSS Polymer) with an AdvanceBio 300 column (4.6 mm×300 mm) and AdvanceBio 300 guard column (Agilent Technologies) at room temperature. The analysis was run at a flow rate of 0.5 mL/min using 2× concentrated D-PBS buffer (Thermo Fisher Scientific) with detection at 280 nm. 10 μL of protein sample (at 1 mg/mL) were applied onto the column. Data evaluation was performed using WinGPC software v8.1 (PSS Polymer). For estimation of the molecular weight, the SEC column was calibrated with the AdvanceBio SEC 300 Å Protein Standard (Agilent Technologies).

[3] = Hydrophobic interaction chromatography (HIC); type: physicochemical
Experimental: The analysis was run at a flow rate of 1 mL/min with detection at 280 nm. 5 μg of undiluted protein sample were applied onto the column. Gradient elution was from 15% B to 85% B in 7 min followed by 1 min to 100% B, then 1 min to 15% B and then 3 minutes equilibration at 15% B. Buffer A was composed of 1.5 mol/L ammonium sulfate, 25 mmol/L sodium phosphate pH 7.0. Buffer B was composed of 25 mmol/L sodium phosphate pH 7.0. Data evaluation was performed either using LabSolutions software v5.85 (Shimadzu) or Chromeleon 7 software (Thermo Fisher Scientific).

[4] = Nano differential scanning fluorimetry (nanoDSF), Tonset and Tm; type: physicochemical
Experimental: Onset temperatures (Tonset) and melting points (Tm) of protein denaturation were determined using nano differential scanning fluorimetry (nanoDSF). Samples were diluted in formulation buffer to a final concentration of 0.5 mg/mL and loaded into nanoDSF capillaries in duplicates (Nanotemper Technologies). All measurements were done using a Prometheus NT.plex nanoDSF device (Nanotemper Technologies). Heating rate was 1° C. per minute from 20° C. to 95° C. Data were recorded using PR.ThermControl Software v2.3.1 (Nanotemper Technologies) and analyzed using PR.Stability Analysis Software v1.0.3 (Nanotemper Technologies).

Substance	SPR rel. active fraction (human beta-Klotho; pH 5, 40° C.)	SPR rel. active fraction (human beta-Klotho; pH 6, 40° C.)	SPR rel. active fraction (human beta-Klotho; pH 8, 40° C.)	Homogeneity cGE % Monomer [1]	SEC % HMW ([2]; pH 5, 40° C., d 21)	SEC % LMW ([2]; pH 5, 40° C., d 21)	SEC % HMW ([2]; pH 5, d 0)	SEC % LMW ([2]; pH 5, d 0)	SEC % HMW ([2]; pH 6, 40° C., d 21)	SEC % LMW ([2]; pH 6, 40° C., d 21)	SEC % HMW ([2]; pH 6, d 0)	SEC % LMW ([2]; pH 6, d 0)	SEC % HMW ([2]; pH 8, 40° C., d 21)	SEC % LMW ([2]; pH 8, 40° C., d 21)	SEC % HMW ([2]; pH 8, d 0)	SEC % LMW ([2]; pH 8, d 0)	Hydrophobic variance HIC Number of peaks [3]	HIC Number of peaks ([3]; pH 5, 40° C., d 21)	HIC Number of peaks ([3]; pH 5, d 0)	HIC Number of peaks ([3]; pH 6, 40° C., d 21)	also measured
Ab0335: IgG4 PE; 16H7 VL (N25S, D49S, D50A, D91E, N93E); 16H7 VH (M34V, I83T, D109E); HC SEQ ID NO: 39, LC SEQ ID NO: 46	93%	92%	73%	79%	0%	0%	1%	0%	0%	0%	1%	0%	5%	1%	2%	0%	1	1	1	1	HIC Number of peaks ([3]; pH 6, d 0): 1; HIC Number of peaks ([3]; pH 8, 40° C., d 21): 1; HIC Number of peaks ([3]; pH 8, d 0): 1; Thermal stability DSF Tm [4]: 63 °C; Thermal stability DSF Tonset [4]: 52 °C; DSF Tm ([4]; pH 5, 40° C., d 21): 62 °C; DSF Tonset ([4]; pH 5, 40° C., d 21): 45 °C; DSF Tm ([4]; pH 5, d 0): 61 °C; DSF Tonset ([4]; pH 5, d 0): 51 °C; DSF Tm ([4]; pH 6, 40° C., d 21): 62 °C; DSF Tonset ([4]; pH 6, 40° C., d 21): 50 °C; DSF Tm ([4]; pH 6, d 0): 63 °C; DSF Tonset ([4]; pH 6, d 0): 52 °C; DSF Tm ([4]; pH 8, 40° C., d 21): 68 °C; DSF Tonset ([4]; pH 8, 40° C., d 21): 57 °C; DSF Tm ([4]; pH 8, d 0): 68 °C; DSF Tonset ([4]; pH 8, d 0): 57 °C
Ab0351: IgG4 PE; 16H7 VL (N25S, D49E, D50E, D91E, N93E); 16H7 VH (M34V, I83T, D109E); HC SEQ ID NO: 40, LC SEQ ID NO: 47	95%	92%	75%	83%	1%	0%	2%	0%	1%	0%	0%	0%	2%	1%	1%	0%	1	1	1	1	HIC Number of peaks ([3]; pH 6, d 0): 1; HIC Number of peaks ([3]; pH 8, 40° C., d 21): 1; HIC Number of peaks ([3]; pH 8, d 0): 1; Thermal stability DSF Tm [4]: 62 °C; Thermal stability DSF Tonset [4]: 53 °C; DSF Tm ([4]; pH 5, 40° C., d 21): 61 °C; DSF Tonset ([4]; pH 5, 40° C., d 21): 45 °C; DSF Tm ([4]; pH 5, d 0): 61 °C; DSF Tonset ([4]; pH 5, d 0): 50 °C; DSF Tm ([4]; pH 6, 40° C., d 21): 62 °C; DSF Tonset ([4]; pH 6, 40° C., d 21): 52 °C; DSF Tm ([4]; pH 6, d 0): 62 °C; DSF Tonset ([4]; pH 6, d 0): 53 °C; DSF Tm ([4]; pH 8, 40° C., d 21): 66 °C; DSF Tonset ([4]; pH 8, 40° C., d 21): 57 °C; DSF Tm ([4]; pH 8, d 0): 66 °C; DSF Tonset ([4]; pH 8, d 0): 58 °C
Ab0331: IgG4 PE; 16H7 VL (N25S, D49S, D50E, D91E, N93E); 16H7 VH (M34V, I83T, D109E); HC SEQ ID NO: 38, LC SEQ ID NO: 45	97%	91%	78%	77%	1%	0%	1%	0%	0%	0%	1%	0%	1%	1%	2%	0%	1	1	1	1	HIC Number of peaks ([3]; pH 6, d 0): 1; HIC Number of peaks ([3]; pH 8, 40° C., d 21): 1; HIC Number of peaks ([3]; pH 8, d 0): 1; Thermal stability DSF Tm [4]: 63 °C; Thermal stability DSF Tonset [4]: 53 °C; DSF Tm ([4]; pH 5, 40° C., d 21): 61 °C; DSF Tonset ([4]; pH 5, 40° C., d 21): 44 °C; DSF Tm ([4]; pH 5, d 0): 61 °C; DSF Tonset ([4]; pH 5, d 0): 54 °C; DSF Tm ([4]; pH 6, 40° C., d 21): 62 °C; DSF Tonset ([4]; pH 6, 40° C., d 21): 50 °C; DSF Tm ([4]; pH 6, d 0): 63 °C; DSF Tonset ([4]; pH 6, d 0): 53 °C; DSF Tm ([4]; pH 8, 40° C., d 21): 67 °C; DSF Tonset ([4]; pH 8, 40° C., d 21): 57 °C; DSF Tm ([4]; pH 8, d 0): 68 °C; DSF Tonset ([4]; pH 8, d 0): 58 °C
